According to article PMC11532494 (Nature Communications, 2024):
“And” between values parts separate entries of the source, which are not always exact repeats. Equal entries are not always repeated. Where two headings read alike, the source gives them in different places. No end group written: not given here. *: point of attachment. AMC = Cc1cc(=O)oc2cc(N*)ccc12

Columns and labels:
VsHdaH (1b) = type: biochemical, Vibrio sp.; details: for RFU means, VsHdaH (1b) / RFU*2 means, VsHdaH (1b): means of two measurements; for [AMC] (nM), VsHdaH (1b), means / [AMC] (nM), VsHdaH (1b): substrate screening; for [AMC] (nM), VsHdaH (1b), means: mean of two measurements
PsApaH (4) = PsApaH (4) (Pseudomonas sp. M30-35, UniProt A0A1Y0KY79); type: biochemical; details: for RFU means, PsApaH (4) / RFU*2 means, PsApaH (4): means of two measurements; for [AMC] (nM), PsApaH (4), means / [AMC] (nM), PsApaH (4): substrate screening; for [AMC] (nM), PsApaH (4), means: mean of two measurements
Procedure: (§1) Experiments with SIRT2 and SIRT5 were supplemented with NAD^+ (500 µM). Thereafter, a solution of trypsin (25 µL, 5.0 mg/mL; final concentration of 2.5 mg/mL) was added, and the development of the assay was allowed to proceed for 90 min at room temperature before fluorescence analysis. […] To this end, a single category is given to all conversions >48% on the heatmap. […] For the H4-derived peptide LGKbio no positive control was available.

LpApaH (3) = LpApaH (3) (Legionella pneumophila, UniProt A0A2S6EWV0); type: biochemical
LcApaH (3) = LcApaH (3) (Legionella cherrii, UniProt A0A0W0SGS1); type: biochemical
RsPrpH (1b) = assay: Substrate screening assay (acyl-peptide-AMC); type: biochemical, Rhizorhabdus sp.
RwDmhA (1b) = RwDmhA (1b) (Rhizorhabdus wittichii, UniProt A0A067XIQ6); type: biochemical
VcHdaH (5b) = type: biochemical, Vibrio cholerae; details: for RFU means, VcHdaH (5b) / RFU*2 means, VcHdaH (5b): means of two measurements; for [AMC] (nM), VcHdaH (5b), means: substrate screening, mean of two measurements
BsAcuC (2c) = target: T1, BsAcuC (2c) (Bacillus subtilis, UniProt P39067); assay: Substrate screening assay (acyl-peptide-AMC); type: biochemical; details: for RFU means, BsAcuC (2c) / RFU*2 means, BsAcuC (2c): means of two measurements; for [AMC] (nM), BsAcuC (2c), means: substrate screening, mean of two measurements; for RFU*2, BsAcuC (2c): two measurements, single values
T1 construct: made in house; host or cells: E. coli BL21 (DE3)
T1 sequence (P39067 1-387): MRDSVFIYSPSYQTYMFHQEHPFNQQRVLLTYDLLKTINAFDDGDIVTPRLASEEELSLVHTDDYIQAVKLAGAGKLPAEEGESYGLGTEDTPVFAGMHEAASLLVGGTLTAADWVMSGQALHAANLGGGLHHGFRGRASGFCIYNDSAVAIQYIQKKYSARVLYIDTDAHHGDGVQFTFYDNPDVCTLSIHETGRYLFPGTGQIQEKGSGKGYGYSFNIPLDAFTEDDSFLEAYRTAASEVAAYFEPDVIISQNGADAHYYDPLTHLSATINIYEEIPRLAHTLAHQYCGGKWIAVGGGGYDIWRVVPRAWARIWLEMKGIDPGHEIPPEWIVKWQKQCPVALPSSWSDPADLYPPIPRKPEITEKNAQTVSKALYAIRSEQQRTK
Procedure: as §1

Controls [1] = type: biochemical
Controls [2] = type: biochemical; remark: listed apart in the source
KpHdaH (1b) = KpHdaH (1b) (Klebsiella pneumoniae, UniProt A0A377Z5F6); type: biochemical; details: for RFU means, KpHdaH (1b) / RFU*2 means, KpHdaH (1b): means of two measurements; for [AMC] (nM), KpHdaH (1b), means / [AMC] (nM), KpHdaH (1b): substrate screening; for [AMC] (nM), KpHdaH (1b), means: mean of two measurements
[3] = two measurements, single values
[4] = substrate screening, mean of two measurements
[5] = substrate screening, measurement 1 of two
[6] = substrate screening, measurement 2 of two

Substance: QPKKdec (QPKK-{AMC}; not fully specified (residue 4); printed as QPKKdec; also: decanoyl-lysine (which Lys not given here); UniProt P04637 317-320, looked up, fragment)
- RFU means, VsHdaH (1b) (VsHdaH (1b)): 82 RFU
- RFU*2 means, VsHdaH (1b) (VsHdaH (1b)): 164 RFU*2
- [AMC] (nM), VsHdaH (1b), means (VsHdaH (1b)): 80.08 nM
- [AMC] (nM), VsHdaH (1b) (VsHdaH (1b); measurement 1 of two): 61.52 nM
- [AMC] (nM), VsHdaH (1b) (VsHdaH (1b); measurement 2 of two): 98.63 nM
- RFU*2, VsHdaH (1b) (VsHdaH (1b); [3]): 126 RFU*2 and 202 RFU*2
- RFU, VsHdaH (1b) (VsHdaH (1b); [3]): 63 RFU and 101 RFU
- RFU means, PsApaH (4) (PsApaH (4)): 97 RFU
- RFU*2 means, PsApaH (4) (PsApaH (4)): 194 RFU*2
- [AMC] (nM), PsApaH (4), means (PsApaH (4)): 94.73 nM
- [AMC] (nM), PsApaH (4) (PsApaH (4); measurement 1 of two): 91.80 nM
- [AMC] (nM), PsApaH (4) (PsApaH (4); measurement 2 of two): 97.66 nM
- RFU*2, PsApaH (4) (PsApaH (4); [3]): 200 RFU*2 and 188 RFU*2
- RFU, PsApaH (4) (PsApaH (4); [3]): 100 RFU and 94 RFU
- RFU means, LpApaH (3) (LpApaH (3)): 175 RFU
- RFU*2, LpApaH (3) (LpApaH (3)): 316 RFU*2 and 384 RFU*2
- RFU*2 means, LpApaH (3) (LpApaH (3)): 350 RFU*2
- RFU, LpApaH (3) (LpApaH (3)): 158 RFU and 192 RFU
- [AMC] (nM), LpApaH (3) (LpApaH (3)): 154.30 nM and 187.50 nM
- [AMC] (nM), LpApaH (3), means (LpApaH (3)): 170.90 nM
- RFU means, LcApaH (3) (LcApaH (3)): 167 RFU
- RFU*2, LcApaH (3) (LcApaH (3)): 294 RFU*2 and 374 RFU*2
- RFU*2 means, LcApaH (3) (LcApaH (3)): 334 RFU*2
- RFU, LcApaH (3) (LcApaH (3)): 147 RFU and 187 RFU
- [AMC] (nM), LcApaH (3) (LcApaH (3)): 143.55 nM and 182.62 nM
- [AMC] (nM), LcApaH (3), means (LcApaH (3)): 163.09 nM
- RFU means, RsPrpH (1b) (RsPrpH (1b); means of two measurements): 37.5 RFU
- RFU*2 means, RsPrpH (1b) (RsPrpH (1b); means of two measurements): 75 RFU*2
- [AMC] (nM), RsPrpH (1b), means (RsPrpH (1b); [4]): 36.62 nM
- [AMC] (nM), RsPrpH (1b) (RsPrpH (1b); [5]): 31.25 nM
- [AMC] (nM), RsPrpH (1b) (RsPrpH (1b); [6]): 41.99 nM
- RFU*2, RsPrpH (1b) (RsPrpH (1b); [3]): 64 RFU*2 and 86 RFU*2
- RFU, RsPrpH (1b) (RsPrpH (1b); [3]): 32 RFU and 43 RFU
- RFU means, RwDmhA (1b) (RwDmhA (1b); means of two measurements): 33 RFU
- RFU*2 means, RwDmhA (1b) (RwDmhA (1b); means of two measurements): 66 RFU*2
- [AMC] (nM), RwDmhA (1b), means (RwDmhA (1b); [4]): 32.23 nM
- [AMC] (nM), RwDmhA (1b) (RwDmhA (1b); [5]): 18.55 nM
- [AMC] (nM), RwDmhA (1b) (RwDmhA (1b); [6]): 45.90 nM
- RFU means, VcHdaH (5b) (VcHdaH (5b)): 53.5 RFU
- RFU*2 means, VcHdaH (5b) (VcHdaH (5b)): 107 RFU*2
- [AMC] (nM), VcHdaH (5b), means (VcHdaH (5b)): 52.25 nM
- RFU means, BsAcuC (2c) (BsAcuC (2c)): 1377 RFU
- RFU*2 means, BsAcuC (2c) (BsAcuC (2c)): 2754 RFU*2
- [AMC] (nM), BsAcuC (2c), means (BsAcuC (2c)): 1344.73 nM
- RFU*2, BsAcuC (2c) (BsAcuC (2c)): 3196 RFU*2 and 2312 RFU*2
- [AMC] (nM), controls, means (Controls [1]): 15830.57 nM
- RFU means, controls (Controls [2]): 16210.5 RFU
- RFU*2, controls (Controls [2]): 29980 RFU*2 and 34862 RFU*2
- RFU*2 means, controls (Controls [2]): 32421 RFU*2
- RFU, controls (Controls [2]): 14990 RFU and 17431 RFU
- RFU means, KpHdaH (1b) (KpHdaH (1b)): 58 RFU
- RFU*2 means, KpHdaH (1b) (KpHdaH (1b)): 116 RFU*2
- [AMC] (nM), KpHdaH (1b), means (KpHdaH (1b)): 56.64 nM
- [AMC] (nM), KpHdaH (1b) (KpHdaH (1b); measurement 1 of two): 48.83 nM
- [AMC] (nM), KpHdaH (1b) (KpHdaH (1b); measurement 2 of two): 64.45 nM
- RFU*2, KpHdaH (1b) (KpHdaH (1b); [3]): 100 RFU*2 and 132 RFU*2
- RFU, KpHdaH (1b) (KpHdaH (1b); [3]): 50 RFU and 66 RFU

Substance: QPKKhex (QPKK-{AMC}; not fully specified (residue 4); printed as QPKKhex; also: hexanoyl-lysine (which Lys not given here); UniProt P04637 317-320, looked up, fragment)
- RFU means, VsHdaH (1b) (VsHdaH (1b)): 66.5 RFU
- RFU*2 means, VsHdaH (1b) (VsHdaH (1b)): 133 RFU*2
- [AMC] (nM), VsHdaH (1b), means (VsHdaH (1b)): 64.94 nM
- [AMC] (nM), VsHdaH (1b) (VsHdaH (1b); measurement 1 of two): 35.16 nM
- [AMC] (nM), VsHdaH (1b) (VsHdaH (1b); measurement 2 of two): 94.73 nM
- RFU means, PsApaH (4) (PsApaH (4)): 94.5 RFU
- RFU*2 means, PsApaH (4) (PsApaH (4)): 189 RFU*2
- [AMC] (nM), PsApaH (4), means (PsApaH (4)): 92.29 nM
- [AMC] (nM), PsApaH (4) (PsApaH (4); measurement 1 of two): 125.00 nM
- [AMC] (nM), PsApaH (4) (PsApaH (4); measurement 2 of two): 59.57 nM
- RFU means, LpApaH (3) (LpApaH (3)): 57.5 RFU
- RFU*2 means, LpApaH (3) (LpApaH (3)): 115 RFU*2
- [AMC] (nM), LpApaH (3), means (LpApaH (3)): 56.15 nM
- RFU means, LcApaH (3) (LcApaH (3)): 70 RFU
- RFU*2 means, LcApaH (3) (LcApaH (3)): 140 RFU*2
- [AMC] (nM), LcApaH (3), means (LcApaH (3)): 68.36 nM
- RFU means, RsPrpH (1b) (RsPrpH (1b)): -23.5 RFU
- RFU*2 means, RsPrpH (1b) (RsPrpH (1b)): -47 RFU*2
- [AMC] (nM), RsPrpH (1b), means (RsPrpH (1b)): -22.95 nM
- RFU means, RwDmhA (1b) (RwDmhA (1b)): 55 RFU
- RFU*2 means, RwDmhA (1b) (RwDmhA (1b)): 110 RFU*2
- [AMC] (nM), RwDmhA (1b), means (RwDmhA (1b)): 53.71 nM
- RFU means, VcHdaH (5b) (VcHdaH (5b)): 50.5 RFU
- RFU*2 means, VcHdaH (5b) (VcHdaH (5b)): 101 RFU*2
- [AMC] (nM), VcHdaH (5b), means (VcHdaH (5b)): 49.32 nM
- RFU means, BsAcuC (2c) (BsAcuC (2c)): 1487.5 RFU
- RFU*2 means, BsAcuC (2c) (BsAcuC (2c)): 2975 RFU*2
- [AMC] (nM), BsAcuC (2c), means (BsAcuC (2c)): 1452.64 nM
- RFU*2, BsAcuC (2c) (BsAcuC (2c)): 3440 RFU*2 and 2510 RFU*2
- [AMC] (nM), controls, means (Controls [1]): 3516.11 nM
- RFU means, controls (Controls [2]): 3600.5 RFU
- RFU*2, controls (Controls [2]): 6176 RFU*2 and 8226 RFU*2
- RFU*2 means, controls (Controls [2]): 7201 RFU*2
- RFU, controls (Controls [2]): 3088 RFU and 4113 RFU
- RFU means, KpHdaH (1b) (KpHdaH (1b)): 92 RFU
- RFU*2 means, KpHdaH (1b) (KpHdaH (1b)): 184 RFU*2
- [AMC] (nM), KpHdaH (1b), means (KpHdaH (1b)): 89.84 nM
- [AMC] (nM), KpHdaH (1b) (KpHdaH (1b); measurement 1 of two): 166.02 nM
- [AMC] (nM), KpHdaH (1b) (KpHdaH (1b); measurement 2 of two): 13.67 nM
